{
  "source": "patent CN110760003A",
  "binders": {"B1": {"name": "抗HER3单链抗体 (anti-HER3-scFv) (scFv)", "scFv": "QVQLVESGGGLVQPGGSLRLSCAASGFTFSSYAMSWVRQAPGKGLEWVSAINSQGKSTYYADSVKGRFTISRDNSKNTLYLQMNSLRAEDTAVYYCARWGDEGFDIWGQGTLVTVSSGGGGSGGGGSGGGGSDIQMTQSPSSLSASVGDRVTITCRASQGISNWLAWYQQKPGKAPKLLIYGASSLQSGVPSRFSGSGSGTDFTLTISSLQPEDFAVYYCQQYSSFPTTFGQGTKVEIK"}},
  "target": "人HER3胞外区蛋白 (human HER3 extracellular region protein) (human) (UniProt P21860)",
  "assay": "ELISA; human HER3 extracellular region coated at 2 μg/mL, scFv at 2 μg/mL, detected with HRP anti-6×His Tag antibody, TMB, triplicate wells (mean ± deviation)",
  "data": [
    {"binder": "B1", "values": [
      {"measurement": "吸光度(A450)均值", "result": 0.961, "unit": "A450"}
    ]}
  ]
}
